Experimental findings from doi:10.1101/2024.07.12.603347 are described below.

Assay [1] has as its target Cytochrome P450 RufO (Streptomyces atratus). The assay can be described thus: UV-visible absorbance titration.
For assay [2], the target named is Biarylitide crosslinking cytochrome P450Blt. Put plainly: UV-visible absorbance titration.

On to “Nle-RYLH (Nle-1), BytA pentapeptide MRYLH with norleucine in place of Met”, for which the values for the Kd in assay [1] and in assay [2] were 840 nM and 2100 nM, respectively.
